Reference: patent publication CN116640216A

Target: CD19-CD22 CAR(CD19-CD22双靶点CAR-T细胞表面表达的CD19-CD22 scFv)
Test: flow cytometry on CD19-CD22 CAR-T cells, positive control tube

Alexa Fluor®647荧光标记的抗鼠F(ab')2抗体(Jackson ImmunoResearch Laboratories，货号#115-605-072) (antibody)
CAR阳性百分率: 31.6%
